The results in this text go back to PMC2965237 (Nucleic Acids Research, 2010).

This data set concerns the molecule itself. The experiment in a line: SEC. In general terms: SEC sorts molecules by how far they enter the pores of the column.

B1: RdgC R118C (natural protein)
chain: not shown
Consider B1, for which the binding result was “binds”.

B2: RdgC protein (Escherichia coli), wild type (natural protein)
chain: not shown
As usually defined, the stoichiometry N is a count of units in the complex or per binding partner. On to B2, for which the “stoichiometry N” value turned out to be 2.

B3: RdgC Δfinger (P76G, Δ77–115, L116T) (natural protein)
chain: not shown
For B3, the binding result is recorded as “binds”.

B4: RdgC Δfinger R118C (natural protein)
chain: not shown
As to B4, the binding result is “binds”.
